Measured values taken from publication PMC10397247.
Values belong to the binder of their own block, whether it stands above or below them.

Experiments:
Assay in all cases: two-hybrid library CCmax;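 further: natural log of median RNA to DNA barcode read ratio; higher means stronger binding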
4H1845-AA = biological target: T1, 4H1845-AA; conditions: mean of both orientations
T1 chain: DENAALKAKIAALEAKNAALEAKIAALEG

4H1594-AA = biological target: T2, 4H1594-AA; conditions: mean of both orientations
T2 chain: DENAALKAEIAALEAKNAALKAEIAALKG

4H2553-AA = biological target: T3, 4H2553-AA; conditions: mean of both orientations
T3 chain: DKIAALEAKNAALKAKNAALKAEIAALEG

4H1310-AA = biological target: T4, 4H1310-AA; conditions: mean of both orientations
T4 chain: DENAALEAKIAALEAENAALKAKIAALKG

4H3378-AA = biological target: T5, 4H3378-AA
T5 chain: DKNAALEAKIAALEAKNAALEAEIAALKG

4H1513-AA = biological target: T6, 4H1513-AA; conditions: mean of both orientations
T6 chain: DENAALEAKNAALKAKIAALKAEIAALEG

4H384-AA = biological target: T7, 4H384-AA; conditions: mean of both orientations
T7 chain: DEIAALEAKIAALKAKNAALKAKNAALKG

4H3588-AA = biological target: T8, 4H3588-AA; conditions: mean of both orientations
T8 chain: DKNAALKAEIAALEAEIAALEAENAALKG

4H1351-AA = biological target: T9, 4H1351-AA; conditions: mean of both orientations
T9 chain: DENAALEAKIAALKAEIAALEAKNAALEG

4H2907-AA = biological target: T10, 4H2907-AA; conditions: mean of both orientations
T10 chain: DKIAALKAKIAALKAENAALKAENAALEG

4H2620-AA = biological target: T11, 4H2620-AA; conditions: mean of both orientations
T11 chain: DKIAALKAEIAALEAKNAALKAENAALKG

4H3865-AA = biological target: T12, 4H3865-AA; conditions: mean of both orientations
T12 chain: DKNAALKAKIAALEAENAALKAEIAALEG

4H3631-AA = biological target: T13, 4H3631-AA; conditions: mean of both orientations
T13 chain: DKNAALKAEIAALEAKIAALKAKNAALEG

4H1874-AA = biological target: T14, 4H1874-AA; conditions: mean of both orientations
T14 chain: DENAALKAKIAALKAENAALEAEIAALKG

4H2198-AA = biological target: T15, 4H2198-AA; conditions: mean of both orientations
T15 chain: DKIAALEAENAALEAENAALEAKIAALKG

4H3718-AA = biological target: T16, 4H3718-AA; conditions: mean of both orientations
T16 chain: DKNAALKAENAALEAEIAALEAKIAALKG

4H3133-AA = biological target: T17, 4H3133-AA; conditions: mean of both orientations
T17 chain: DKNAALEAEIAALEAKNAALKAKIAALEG

4H340-AA = biological target: T18, 4H340-AA; conditions: mean of both orientations
T18 chain: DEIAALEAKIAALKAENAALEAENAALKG

4H32-AA = biological target: T19, 4H32-AA; conditions: mean of both orientations
T19 chain: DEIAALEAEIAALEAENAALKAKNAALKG

4H3697-AA = biological target: T20, 4H3697-AA; conditions: mean of both orientations
T20 chain: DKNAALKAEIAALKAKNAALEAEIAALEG

4H1629-AA = biological target: T21, 4H1629-AA; conditions: mean of both orientations
T21 chain: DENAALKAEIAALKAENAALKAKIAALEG

4H3413-AA = biological target: T22, 4H3413-AA; conditions: mean of both orientations
T22 chain: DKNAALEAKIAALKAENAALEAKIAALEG

4H2648-AA = biological target: T23, 4H2648-AA; conditions: mean of both orientations
T23 chain: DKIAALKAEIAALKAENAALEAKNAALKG

4H3606-AA = biological target: T24, 4H3606-AA; conditions: mean of both orientations
T24 chain: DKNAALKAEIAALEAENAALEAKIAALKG

4H982-AA = biological target: T25, 4H982-AA; conditions: mean of both orientations
T25 chain: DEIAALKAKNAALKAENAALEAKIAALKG

4H123-AA = biological target: T26, 4H123-AA
T26 chain: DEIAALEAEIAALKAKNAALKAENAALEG

4H2611-AA = biological target: T27, 4H2611-AA; conditions: mean of both orientations
T27 chain: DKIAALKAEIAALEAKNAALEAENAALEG

4H3056-AA = biological target: T28, 4H3056-AA; conditions: mean of both orientations
T28 chain: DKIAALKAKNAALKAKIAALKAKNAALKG

4H1388-AA = biological target: T29, 4H1388-AA; conditions: mean of both orientations
T29 chain: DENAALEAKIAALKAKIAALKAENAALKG

4H1401-AA = biological target: T30, 4H1401-AA; conditions: mean of both orientations
T30 chain: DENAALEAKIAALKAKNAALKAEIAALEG

4H3162-AA = biological target: T31, 4H3162-AA; conditions: mean of both orientations
T31 chain: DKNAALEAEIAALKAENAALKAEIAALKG

4H697-AA = biological target: T32, 4H697-AA; conditions: mean of both orientations
T32 chain: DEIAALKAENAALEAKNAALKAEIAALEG

4H3974-AA = biological target: T33, 4H3974-AA; conditions: mean of both orientations
T33 chain: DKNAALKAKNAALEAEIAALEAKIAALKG

4H3777-AA = biological target: T34, 4H3777-AA; conditions: mean of both orientations
T34 chain: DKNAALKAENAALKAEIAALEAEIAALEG

4H1593-AA = biological target: T35, 4H1593-AA; conditions: mean of both orientations
T35 chain: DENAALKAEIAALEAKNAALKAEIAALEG

4H133-AA = biological target: T36, 4H133-AA
T36 chain: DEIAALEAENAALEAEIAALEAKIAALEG

4H2947-AA = biological target: T37, 4H2947-AA
T37 chain: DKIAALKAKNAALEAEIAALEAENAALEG

4H3619-AA = biological target: T38, 4H3619-AA; conditions: mean of both orientations
T38 chain: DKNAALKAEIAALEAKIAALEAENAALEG

4H324-AA = biological target: T39, 4H324-AA; conditions: mean of both orientations
T39 chain: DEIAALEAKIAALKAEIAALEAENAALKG

4H2774-AA = biological target: T40, 4H2774-AA; conditions: mean of both orientations
T40 chain: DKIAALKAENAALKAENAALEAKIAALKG

4H235-AA = biological target: T41, 4H235-AA; conditions: mean of both orientations
T41 chain: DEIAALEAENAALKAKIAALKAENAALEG

4H2903-AA = biological target: T42, 4H2903-AA; conditions: mean of both orientations
T42 chain: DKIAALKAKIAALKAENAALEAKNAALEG

4H2961-AA = biological target: T43, 4H2961-AA; conditions: mean of both orientations
T43 chain: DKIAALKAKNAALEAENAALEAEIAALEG

4H341-AA = biological target: T44, 4H341-AA; conditions: mean of both orientations
T44 chain: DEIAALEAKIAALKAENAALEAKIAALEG

4H2604-AA = biological target: T45, 4H2604-AA; conditions: mean of both orientations
T45 chain: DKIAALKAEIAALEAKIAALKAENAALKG

4H1384-AA = biological target: T46, 4H1384-AA; conditions: mean of both orientations
T46 chain: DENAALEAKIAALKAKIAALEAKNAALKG

4H3094-AA = biological target: T47, 4H3094-AA; conditions: mean of both orientations
T47 chain: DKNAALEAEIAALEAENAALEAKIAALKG

4H3049-AA = biological target: T48, 4H3049-AA; conditions: mean of both orientations
T48 chain: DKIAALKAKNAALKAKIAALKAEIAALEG

4H432-AA = biological target: T49, 4H432-AA; conditions: mean of both orientations
T49 chain: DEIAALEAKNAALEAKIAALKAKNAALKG

4H249-AA = biological target: T50, 4H249-AA; conditions: mean of both orientations
T50 chain: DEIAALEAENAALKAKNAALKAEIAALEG

4H2580-AA = biological target: T51, 4H2580-AA; conditions: mean of both orientations
T51 chain: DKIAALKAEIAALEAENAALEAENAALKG

4H3449-AA = biological target: T52, 4H3449-AA; conditions: mean of both orientations
T52 chain: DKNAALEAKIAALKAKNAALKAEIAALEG

4H1449-AA = biological target: T53, 4H1449-AA; conditions: mean of both orientations
T53 chain: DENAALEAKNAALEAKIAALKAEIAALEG

4H1349-AA = biological target: T54, 4H1349-AA; conditions: mean of both orientations
T54 chain: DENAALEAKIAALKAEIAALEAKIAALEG

4H63-AA = biological target: T55, 4H63-AA; conditions: mean of both orientations
T55 chain: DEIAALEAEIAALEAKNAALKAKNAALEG

4H2760-AA = biological target: T56, 4H2760-AA; conditions: mean of both orientations
T56 chain: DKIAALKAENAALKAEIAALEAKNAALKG

4H3629-AA = biological target: T57, 4H3629-AA; conditions: mean of both orientations
T57 chain: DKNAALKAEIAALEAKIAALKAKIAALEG

4H1878-AA = biological target: T58, 4H1878-AA; conditions: mean of both orientations
T58 chain: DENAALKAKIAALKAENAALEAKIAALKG

4H380-AA = biological target: T59, 4H380-AA; conditions: mean of both orientations
T59 chain: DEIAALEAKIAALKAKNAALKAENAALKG

4H446-AA = biological target: T60, 4H446-AA; conditions: mean of both orientations
T60 chain: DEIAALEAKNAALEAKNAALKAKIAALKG

4H2621-AA = biological target: T61, 4H2621-AA; conditions: mean of both orientations
T61 chain: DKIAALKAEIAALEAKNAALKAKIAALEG

4H3915-AA = biological target: T62, 4H3915-AA; conditions: mean of both orientations
T62 chain: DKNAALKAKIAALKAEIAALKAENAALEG

interaction score (4H1845-AA): -1.73
interaction score (4H1594-AA): -1.9
interaction score (4H2553-AA): -1.8
interaction score (4H1310-AA): -2
interaction score (4H3378-AA): -1.89
interaction score (4H1513-AA): -1.7
interaction score (4H384-AA): -0.635
interaction score (4H3588-AA): -0.454
interaction score (4H1351-AA): -0.328
interaction score (4H2907-AA): 0.0402
interaction score (4H2620-AA): 0.675
interaction score (4H3865-AA): -1.93
interaction score (4H3631-AA): -0.979
interaction score (4H1874-AA): -0.134
interaction score (4H2198-AA): -0.461
interaction score (4H3718-AA): -0.602
interaction score (4H3133-AA): -2.05
interaction score (4H340-AA): 1.64
interaction score (4H32-AA): 1.79
interaction score (4H3697-AA): -1.64
interaction score (4H1629-AA): -1.79
interaction score (4H3413-AA): -1.35
interaction score (4H2648-AA): 2.1
interaction score (4H3606-AA): 1.04
interaction score (4H982-AA): -1.15
interaction score (4H123-AA): -1.3
interaction score (4H2611-AA): 0.00349
interaction score (4H3056-AA): -2.08
interaction score (4H1388-AA): -0.318
interaction score (4H1401-AA): -1.83
interaction score (4H3162-AA): -1.32
interaction score (4H697-AA): -0.781
Binder: DEIAALEAEIAALKAKNAALKAENAALEG [4H123-AA]

interaction score (4H3974-AA): 0.688
interaction score (4H3777-AA): 0.631
interaction score (4H1593-AA): -0.948
interaction score (4H133-AA): -0.665
interaction score (4H2947-AA): -0.964
interaction score (4H3619-AA): -0.325
interaction score (4H324-AA): -0.986
interaction score (4H2774-AA): 0.342
interaction score (4H235-AA): 0.197
interaction score (4H2903-AA): -1.62
interaction score (4H2961-AA): -1.33
interaction score (4H341-AA): -1.11
interaction score (4H2604-AA): -0.647
interaction score (4H1384-AA): 0.598
interaction score (4H3094-AA): -1.05
interaction score (4H3049-AA): 2.17
interaction score (4H432-AA): -0.168
interaction score (4H249-AA): 0.33
interaction score (4H2580-AA): -1.27
interaction score (4H3449-AA): 0.625
interaction score (4H1449-AA): 0.176
interaction score (4H1349-AA): 0.224
interaction score (4H63-AA): -1.37
interaction score (4H2760-AA): 1.33
interaction score (4H3629-AA): 1.24
interaction score (4H1878-AA): 1.23
interaction score (4H380-AA): -1.13
interaction score (4H446-AA): 0.854
interaction score (4H2621-AA): 0.704
interaction score (4H3915-AA): 1.08
Binder: DEIAALEAENAALEAEIAALEAKIAALEG [4H133-AA]
